Reference: paper PMC7934257

Target: D-allulose 3-epimerase (DaeB) from Bacillus sp. KCTC 13219 (Bacillus sp. KCTC 13219)
Assay: SEC; Superdex 200 Increase 10/300 GL, 50 mM Tris pH 8.0, 300 mM NaCl, 0.5 mL/min; calibrated with ribonuclease A, ovalbumin, conalbumin and aldolase; self-association of purified DaeB

D-allulose 3-epimerase (DaeB) from Bacillus sp. KCTC 13219 (enzyme)
stoichiometry N: 2
